Consider 4 substances from PMC10790780.

Series [1] deals with T1, Rho-His6 (transcription termination factor Rho) (Acinetobacter baumannii AB5075) (UniProt A0ABX6CC36). In words: competition.
For series [2], the target named is T1, Rho-His6 (transcription termination factor Rho) (Acinetobacter baumannii AB5075). Nature of the series: EMSA. Background: Mobility shift assays separate free from complexed probe on a gel.
The subject of series [3] is Rho-His6 (transcription termination factor Rho) (Acinetobacter baumannii AB5075). Nature of the series: EMSA. As to conditions: LightShift chemiluminescent RNA EMSA kit components, 20 uL, 1 h at room temperature; 5% acrylamide TBE gel, 0.5x TBE, 100 V 120 min at 4 C; salt and pH not ….

Broadly, the Kd is the concentration at which binding is half-saturated.

Take “GGGCUUUGCCUGCUAGCCACAUUGCUAGCGGGUUUUAGCAGACCCUAUUUAAACAAAGACGAUAGACAGAACCUAGUUUUGUGUGUCGUGAACUCGUUCGCCCCCUUUUUCUCUAUGGUAGGGCGGAAGGGGGACACCUUCGGGUGUGCUGGUUUCUUUGUUUUCCAGUCUGCUAACCCUCUUUCGUCCUGCCAGUACUGAUC [ABUW_1645 mRNA leader, unlabeled competitor]”: the binding entry in series [1] was “binds”. In series [2], “GGGCUUUGCCUGCUAGCCACAUUGCUAGCGGGUUUUAGCAGACCCUAUUUAAACAAAGACGAUAGACAGAACCUAGUUUUGUGUGUCGUGAACUCGUUCGCCCCCUUUUUCUCUAUGGUAGGGCGGAAGGGGGACACCUUCGGGUGUGCUGGUUUCUUUGUUUUCCAGUCUGCUAACCCUCUUUCGUCCUGCCAGUACUGAUC [ABUW_1645 mRNA leader]” returned a Kd of 20 nM. With ABUW_1645 mRNA leader, in series [3], the Kd came to 20 nM. Consider ABUW_1959 mRNA leader, for which the Kd in series [3] is 29 nM.
